Our source for the Kd values is publication PMC9604360 (2022).

For this assay, the target named is T1, Ribonuclease A (scrambled, oxidized) (Bos taurus, UniProt P61823).
T1 chain: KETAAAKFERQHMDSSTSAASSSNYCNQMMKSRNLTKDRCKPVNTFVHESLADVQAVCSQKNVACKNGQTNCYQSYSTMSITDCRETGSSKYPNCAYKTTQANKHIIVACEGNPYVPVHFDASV
As to the kind of experiment: intrinsic fluorescence quenching.

B1: MET 25-932 (protein)
chain: ECKEALAKSEMNVNMKYQLPNFTAETPIQNVILHEHHIFLGATNYIYVLNEEDLQKVAEYKTGPVLEHPDCFPCQDCSSKANLSGGVWKDNINMALVVDTYYDDQLISCGSVNRGTCQRHVFPHNHTADIQSEVHCIFSPQIEEPSQCPDCVVSALGAKVLSSVKDRFINFFVGNTINSSYFPDHPLHSISVRRLKETKDGFMFLTDQSYIDVLPEFRDSYPIKYVHAFESNNFIYFLTVQRETLDAQTFHTRIIRFCSINSGLHSYMEMPLECILTEKRKKRSTKKEVFNILQAAYVSKPGAQLARQIGASLNDDILFGVFAQSKPDSAEPMDRSAMCAFPIKYVNDFFNKIVNKNNVRCLQHFYGPNHEHCFNRTLLRNSSGCEARRDEYRTEFTTALQRVDLFMGQFSEVLLTSISTFIKGDLTIANLGTSEGRFMQVVVSRSGPSTPHVNFLLDSHPVSPEVIVEHTLNQNGYTLVITGKKITKIPLNGLGCRHFQSCSQCLSAPPFVQCGWCHDKCVRSEECLSGTWTQQICLPAIYKVFPNSAPLEGGTRLTICGWDFGFRRNNKFDLKKTRVLLGNESCTLTLSESTMNTLKCTVGPAMNKHFNMSIIISNGHGTTQYSTFSYVDPVITSISPKYGPMAGGTLLTLTGNYLNSGNSRHISIGGKTCTLKSVSNSILECYTPAQTISTEFAVKLKIDLANRETSIFSYREDPIVYEIHPTKSFISGGSTITGVGKNLNSVSVPRMVINVHEAGRNFTVACQHRSNSEIICCTTPSLQQLNLQLPLKTKAFFMLDGILSKYFDLIYVHNPVFKPFEKPVMISMGNENVLEIKGNDIDPEAVKGEVLKVGNKSCENIHLHSEAVLCTVPNDLLKLNSELNIEWKQAISSTVLGKVIVQPDQNFT
modifications: scrambled disulfides of RNase A
On to B1, for which the Kd is roughly 300 nM.

As a reminder, the Kd is the free concentration of one partner at which half of the binding sites on the other are occupied at equilibrium, for simple one-to-one binding.
